The target in this data set is MIF (ZP307-labeled) (human, UniProt P14174 2-115). Nature of the data set: competition; competes with PA20-Q1, dose-dependent; 5 mM Mg2+; 100 mM Tris, 5 mM MgCl2, 5 mM KCl, pH 8.2; 1 uM labeled MIF, 1 uM PA20-Q1; inhibitor preincubation at rt. To be noted: protein: recombinant; tags: C-terminal His-tagged and untagged both made; chain copies: 3; single strand.

On to AAAAAAAAAAAAAAAAAAAA (ssDNA) [PA20], for which the binding result is “binds”.

The values above are taken from publication PMC10350922, “Allosteric Inhibitors of Macrophage Migration Inhibitory Factor (MIF) Interfere with Apoptosis-Inducing Factor (AIF) Co-Localization to Prevent Parthanatos”.
